Measurements taken from US20250043302A1, “MUTATED HYDROXYPHENYLPYRUVATE DIOXYGENASE POLYPEPTIDE, AND CODING GENE AND USE THEREOF” (BEIJING DABEINONG BIOTECHNOLOGY CO., LTD., priority 2021, published 2025).
Where a chain is given by its changes, count along the chain named. Names may count otherwise.

B1: AtHPPDm-F415W-02: nucleotide sequence encoding Arabidopsis thaliana HPPD with F415W; vector DBN11793 (nucleic acid)
DNA: ATGGGACATCAGAATGCTGCTGTATCAGAAAATCAAAATCATGATGATGGAGCCGCCTCCTCACCAGGGTTTAAGTTGGTTGGGTTCTCCAAGTTTGTACGGAAGAACCCAAAATCCGACAAGTTCAAGGTTAAACGCTTCCACCACATTGAATTCTGGTGCGGCGACGCCACCAATGTTGCTCGGCGTTTTTCATGGGGTTTAGGCATGAGATTCTCAGCAAAGAGTGACCTGAGCACCGGCAACATGGTTCATGCTAGCTATCTCTTAACATCTGGAGATTTGAGGTTTCTTTTCACGGCGCCGTACTCACCATCACTCTCCGCCGGCGAGATCAAACCCACCACGACTGCAAGCATACCTTCATTTGATCATGGTAGTTGCAGATCCTTCTTCTCGTCGCACGGCCTAGGGGTGCGCGCGGTCGCCATCGAAGTTGAAGATGCAGAATCAGCGTTTAGTATCAGCGTGGCAAATGGAGCTATTCCTTCCTCCCCTCCAATTGTCCTCAATGAGGCTGTAACTATTGCCGAGGTGAAGTTGTATGGAGATGTTGTGCTGAGATATGTTTCTTACAAGGCAGAGGACACTGAGAAATCTGAATTTTTGCCTGGTTTTGAAAGGGTCGAGGATGCTTCAAGTTTTCCTCTTGATTACGGCATACGACGGTTGGATCACGCGGTTGGAAATGTACCAGAACTTGGGCCGGCGCTCACTTATGTGGCTGGTTTCACTGGATTCCATCAATTTGCTGAGTTCACAGCTGATGATGTTGGGACTGCTGAAAGTGGGTTGAACTCTGCAGTCCTCGCCTCTAATGATGAAATGGTGCTCCTCCCGATCAACGAGCCTGTGCATGGCACCAAAAGGAAATCACAAATACAGACATATCTTGAGCACAATGAAGGTGCAGGGCTTCAACATCTTGCACTGATGTCTGAAGACATTTTCCGTACGCTGAGAGAGATGAGGAAGAGAAGTAGTATTGGTGGATTTGACTTCATGCCTTCTCCCCCACCAACTTACTACCAGAACTTGAAGAAGAGGGTTGGTGATGTGCTATCTGATGACCAGATCAAGGAGTGTGAAGAATTGGGCATTCTTGTTGATCGGGACGACCAAGGAACATTACTGCAGATATTTACAAAACCACTTGGTGACCGCCCCACTATTTTTATTGAGATCATACAAAGAGTCGGCTGCATGATGAAGGATGAGGAAGGAAAAGCATATCAATCTGGTGGTTGTGGCGGCTTTGGGAAAGGAAACTGGTCTGAGCTGTTCAAATCCATCGAGGAGTATGAGAAGACCTTGGAGGCCAAGCAGCTCGTGGGTTGA
modifications: AtHPPDm-F415W-02 Nucleotide Sequence
notes: vector DBN11793
B2: AtHPPDm-F372A-F415W-02: nucleotide sequence encoding Arabidopsis thaliana HPPD with F372A+F415W; vector DBN11794 (nucleic acid)
DNA: B1 DNA with T1141G, T1142C, T1143C
modifications: AtHPPDm-F372A-F415W-02 Nucleotide Sequence
notes: vector DBN11794

Columns and labels:
Format in all cases: in vivo
[1] = test system: Arabidopsis thaliana T1 plants; assay: Topramezone tolerance of transgenic Arabidopsis thaliana T1 plants (spray, bleached leaf area grade, damage score); conditions: Table 13; for Classification and statistics of the grade of pesticide damage Grade 0: number of plants at grade 0; for Classification and statistics of the grade of pesticide damage Grade 1: number of plants at grade 1; for Classification and statistics of the grade of pesticide damage Grade 2: number of plants at grade 2; for Classification and statistics of the grade of pesticide damage Grade 3: number of plants at grade 3; for Scores: pesticide damage score
Outline: (§1)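 Damage graded 0–3 from the proportion of bleached leaf area 7 days after spraying. Plants were glufosinate-selected T1 lines, 18 days after sowing, plus vector and wild-type controls. Rates: mesotrione 52.5–420, isoxaflutole 35–280, topramezone 25–200 g ai/ha, with water (0×).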

[2] = test system: Arabidopsis thaliana T1 plants; assay: Isoxaflutole tolerance of transgenic Arabidopsis thaliana T1 plants (spray, bleached leaf area grade, damage score); conditions: for Classification and statistics of the grade of pesticide damage Grade 0 / Classification and statistics of the grade of pesticide damage Grade 1 / Classification and statistics of the grade of pesticide damage Grade 2 / Classification and statistics of the grade of pesticide damage Grade 3: number of plants in grade;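 for Scores: Weighted damage index from 0 to 100 where higher means more damage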
Outline: as §1

[3] = test system: Arabidopsis thaliana T1 plants; assay: Mesotrione tolerance of transgenic Arabidopsis thaliana T1 plants (spray, bleached leaf area grade, damage score); parameters: Scores: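 damage score 0-100 computed as Σ(N×S)/(T×M)×100 over grades 0-3 with higher meaning more damage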; conditions: for Classification and statistics of the grade of pesticide damage Grade 0 / Classification and statistics of the grade of pesticide damage Grade 1 / Classification and statistics of the grade of pesticide damage Grade 2 / Classification and statistics of the grade of pesticide damage Grade 3: number of plants in grade
Outline: as §1

Row | Molecule | Resistance evaluation ([1]; topramezone 25 g ai/ha (1×)) | Classification and statistics of the grade of pesticide damage Grade 0 ([1]; topramezone 25 g ai/ha (1×)) | Classification and statistics of the grade of pesticide damage Grade 1 ([1]; topramezone 25 g ai/ha (1×)) | Classification and statistics of the grade of pesticide damage Grade 2 ([1]; topramezone 25 g ai/ha (1×)) | Classification and statistics of the grade of pesticide damage Grade 3 ([1]; topramezone 25 g ai/ha (1×)) | Scores ([1]; topramezone 25 g ai/ha (1×)) | Resistance evaluation ([1]; topramezone 100 g ai/ha (4×)) | Classification and statistics of the grade of pesticide damage Grade 0 ([1]; topramezone 100 g ai/ha (4×)) | Classification and statistics of the grade of pesticide damage Grade 1 ([1]; topramezone 100 g ai/ha (4×)) | Classification and statistics of the grade of pesticide damage Grade 2 ([1]; topramezone 100 g ai/ha (4×)) | Classification and statistics of the grade of pesticide damage Grade 3 ([1]; topramezone 100 g ai/ha (4×)) | Scores ([1]; topramezone 100 g ai/ha (4×)) | Resistance evaluation ([2]; isoxaflutole 35 g ai/ha) | Scores ([2]; isoxaflutole 35 g ai/ha) | Classification and statistics of the grade of pesticide damage Grade 0 ([2]; isoxaflutole 35 g ai/ha) | Classification and statistics of the grade of pesticide damage Grade 1 ([2]; isoxaflutole 35 g ai/ha) | Classification and statistics of the grade of pesticide damage Grade 2 ([2]; isoxaflutole 35 g ai/ha) | Classification and statistics of the grade of pesticide damage Grade 3 ([2]; isoxaflutole 35 g ai/ha) | Resistance evaluation ([2]; isoxaflutole 70 g ai/ha) | Scores ([2]; isoxaflutole 70 g ai/ha) | other results
1 | B1 | Non-resistant | 0 | 0 | 0 | 16 | 100 | Non-resistant | 0 | 0 | 0 | 16 | 100 | Non-resistant | 100 | 0 | 0 | 0 | 16 | Non-resistant | 100 | Classification and statistics of the grade of pesticide damage Grade 0 ([2]; isoxaflutole 70 g ai/ha): 0; Classification and statistics of the grade of pesticide damage Grade 1 ([2]; isoxaflutole 70 g ai/ha): 0; Classification and statistics of the grade of pesticide damage Grade 2 ([2]; isoxaflutole 70 g ai/ha): 0; Classification and statistics of the grade of pesticide damage Grade 3 ([2]; isoxaflutole 70 g ai/ha): 16; Resistance evaluation ([3]; mesotrione 52.5 g ai/ha): Non-resistant; Scores ([3]; mesotrione 52.5 g ai/ha): 100; Classification and statistics of the grade of pesticide damage Grade 0 ([3]; mesotrione 52.5 g ai/ha): 0; Classification and statistics of the grade of pesticide damage Grade 1 ([3]; mesotrione 52.5 g ai/ha): 0; Classification and statistics of the grade of pesticide damage Grade 2 ([3]; mesotrione 52.5 g ai/ha): 0; Classification and statistics of the grade of pesticide damage Grade 3 ([3]; mesotrione 52.5 g ai/ha): 16; Resistance evaluation ([3]; mesotrione 105 g ai/ha): Non-resistant; Scores ([3]; mesotrione 105 g ai/ha): 100; Classification and statistics of the grade of pesticide damage Grade 0 ([3]; mesotrione 105 g ai/ha): 0; Classification and statistics of the grade of pesticide damage Grade 1 ([3]; mesotrione 105 g ai/ha): 0; Classification and statistics of the grade of pesticide damage Grade 2 ([3]; mesotrione 105 g ai/ha): 0; Classification and statistics of the grade of pesticide damage Grade 3 ([3]; mesotrione 105 g ai/ha): 16
2 | B2 | Poorly | 4 | 4 | 7 | 1 | 44 | Non-resistant | 0 | 0 | 3 | 13 | 94 | Poorly | 54 | 0 | 9 | 4 | 3 | Non-resistant | 100 | Classification and statistics of the grade of pesticide damage Grade 0 ([2]; isoxaflutole 70 g ai/ha): 0; Classification and statistics of the grade of pesticide damage Grade 1 ([2]; isoxaflutole 70 g ai/ha): 0; Classification and statistics of the grade of pesticide damage Grade 2 ([2]; isoxaflutole 70 g ai/ha): 0; Classification and statistics of the grade of pesticide damage Grade 3 ([2]; isoxaflutole 70 g ai/ha): 16; Resistance evaluation ([3]; mesotrione 52.5 g ai/ha): Poorly resistant; Scores ([3]; mesotrione 52.5 g ai/ha): 65; Classification and statistics of the grade of pesticide damage Grade 0 ([3]; mesotrione 52.5 g ai/ha): 0; Classification and statistics of the grade of pesticide damage Grade 1 ([3]; mesotrione 52.5 g ai/ha): 4; Classification and statistics of the grade of pesticide damage Grade 2 ([3]; mesotrione 52.5 g ai/ha): 9; Classification and statistics of the grade of pesticide damage Grade 3 ([3]; mesotrione 52.5 g ai/ha): 3; Resistance evaluation ([3]; mesotrione 105 g ai/ha): Non-resistant; Scores ([3]; mesotrione 105 g ai/ha): 100; Classification and statistics of the grade of pesticide damage Grade 0 ([3]; mesotrione 105 g ai/ha): 0; Classification and statistics of the grade of pesticide damage Grade 1 ([3]; mesotrione 105 g ai/ha): 0; Classification and statistics of the grade of pesticide damage Grade 2 ([3]; mesotrione 105 g ai/ha): 0; Classification and statistics of the grade of pesticide damage Grade 3 ([3]; mesotrione 105 g ai/ha): 16
